According to article PMC3431625:

Experiments:
[1] = biological target: Pepsinized collagen type II (UniProt P02459); test: ELISA
[2] = biological target: Bovine collagen type IV (bovine) (UniProt Q7SIB2); test: ELISA
Sequence of Bovine collagen type IV (bovine) (Q7SIB2 28-1669, chain 1 of 2): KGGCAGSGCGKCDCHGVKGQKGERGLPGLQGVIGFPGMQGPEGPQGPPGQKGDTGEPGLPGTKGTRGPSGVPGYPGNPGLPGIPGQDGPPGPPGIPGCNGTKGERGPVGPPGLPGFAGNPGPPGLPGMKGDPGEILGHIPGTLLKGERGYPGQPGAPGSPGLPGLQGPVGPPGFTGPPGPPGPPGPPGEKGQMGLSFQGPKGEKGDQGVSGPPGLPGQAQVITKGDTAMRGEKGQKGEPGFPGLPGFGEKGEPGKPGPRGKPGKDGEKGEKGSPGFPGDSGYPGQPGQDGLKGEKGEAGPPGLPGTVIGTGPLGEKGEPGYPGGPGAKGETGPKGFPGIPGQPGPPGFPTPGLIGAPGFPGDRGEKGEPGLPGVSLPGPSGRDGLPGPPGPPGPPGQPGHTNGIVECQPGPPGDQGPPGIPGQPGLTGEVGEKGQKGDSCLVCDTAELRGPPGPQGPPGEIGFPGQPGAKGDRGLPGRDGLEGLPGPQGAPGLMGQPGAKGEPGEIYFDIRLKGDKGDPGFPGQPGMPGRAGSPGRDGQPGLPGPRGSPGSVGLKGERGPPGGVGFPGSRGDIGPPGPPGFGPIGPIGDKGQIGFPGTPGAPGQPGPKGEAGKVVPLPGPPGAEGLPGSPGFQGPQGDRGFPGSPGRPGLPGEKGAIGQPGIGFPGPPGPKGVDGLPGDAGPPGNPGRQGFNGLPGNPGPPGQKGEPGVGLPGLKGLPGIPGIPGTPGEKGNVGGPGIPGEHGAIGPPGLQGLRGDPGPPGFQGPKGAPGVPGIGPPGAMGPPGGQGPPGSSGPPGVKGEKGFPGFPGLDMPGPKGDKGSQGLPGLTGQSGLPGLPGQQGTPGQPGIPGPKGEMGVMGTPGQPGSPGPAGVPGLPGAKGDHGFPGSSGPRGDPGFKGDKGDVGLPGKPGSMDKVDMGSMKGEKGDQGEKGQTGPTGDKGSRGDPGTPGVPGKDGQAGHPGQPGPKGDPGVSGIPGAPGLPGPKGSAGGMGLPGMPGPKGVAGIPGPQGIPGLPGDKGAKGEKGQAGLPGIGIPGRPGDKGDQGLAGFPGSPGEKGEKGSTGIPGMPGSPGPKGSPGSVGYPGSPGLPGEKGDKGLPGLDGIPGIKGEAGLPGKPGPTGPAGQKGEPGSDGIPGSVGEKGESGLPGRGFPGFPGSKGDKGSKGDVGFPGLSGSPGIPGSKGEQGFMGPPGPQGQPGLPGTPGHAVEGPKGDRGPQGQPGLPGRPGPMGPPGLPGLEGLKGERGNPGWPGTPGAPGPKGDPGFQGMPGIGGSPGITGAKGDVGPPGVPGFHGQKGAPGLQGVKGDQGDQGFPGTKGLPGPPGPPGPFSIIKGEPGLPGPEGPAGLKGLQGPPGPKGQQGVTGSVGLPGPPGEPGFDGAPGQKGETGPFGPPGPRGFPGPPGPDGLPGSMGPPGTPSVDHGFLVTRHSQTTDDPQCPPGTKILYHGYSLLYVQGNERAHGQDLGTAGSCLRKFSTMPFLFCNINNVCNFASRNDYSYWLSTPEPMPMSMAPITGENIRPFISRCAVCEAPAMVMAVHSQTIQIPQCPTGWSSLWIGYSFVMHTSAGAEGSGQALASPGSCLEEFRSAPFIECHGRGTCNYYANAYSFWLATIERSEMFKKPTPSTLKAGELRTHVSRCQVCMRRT
Sequence of Bovine collagen type IV (bovine) (Q7SIB3 whole entry, chain 2 of 2, further chain): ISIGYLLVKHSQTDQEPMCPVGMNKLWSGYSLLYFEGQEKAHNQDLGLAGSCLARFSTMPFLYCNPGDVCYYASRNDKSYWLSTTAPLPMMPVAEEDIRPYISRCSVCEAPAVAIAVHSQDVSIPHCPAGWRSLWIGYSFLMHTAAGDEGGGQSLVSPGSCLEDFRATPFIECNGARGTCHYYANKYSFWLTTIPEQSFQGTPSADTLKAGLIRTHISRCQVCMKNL

Sequence of Pepsinized collagen type II (P02459 26-1487): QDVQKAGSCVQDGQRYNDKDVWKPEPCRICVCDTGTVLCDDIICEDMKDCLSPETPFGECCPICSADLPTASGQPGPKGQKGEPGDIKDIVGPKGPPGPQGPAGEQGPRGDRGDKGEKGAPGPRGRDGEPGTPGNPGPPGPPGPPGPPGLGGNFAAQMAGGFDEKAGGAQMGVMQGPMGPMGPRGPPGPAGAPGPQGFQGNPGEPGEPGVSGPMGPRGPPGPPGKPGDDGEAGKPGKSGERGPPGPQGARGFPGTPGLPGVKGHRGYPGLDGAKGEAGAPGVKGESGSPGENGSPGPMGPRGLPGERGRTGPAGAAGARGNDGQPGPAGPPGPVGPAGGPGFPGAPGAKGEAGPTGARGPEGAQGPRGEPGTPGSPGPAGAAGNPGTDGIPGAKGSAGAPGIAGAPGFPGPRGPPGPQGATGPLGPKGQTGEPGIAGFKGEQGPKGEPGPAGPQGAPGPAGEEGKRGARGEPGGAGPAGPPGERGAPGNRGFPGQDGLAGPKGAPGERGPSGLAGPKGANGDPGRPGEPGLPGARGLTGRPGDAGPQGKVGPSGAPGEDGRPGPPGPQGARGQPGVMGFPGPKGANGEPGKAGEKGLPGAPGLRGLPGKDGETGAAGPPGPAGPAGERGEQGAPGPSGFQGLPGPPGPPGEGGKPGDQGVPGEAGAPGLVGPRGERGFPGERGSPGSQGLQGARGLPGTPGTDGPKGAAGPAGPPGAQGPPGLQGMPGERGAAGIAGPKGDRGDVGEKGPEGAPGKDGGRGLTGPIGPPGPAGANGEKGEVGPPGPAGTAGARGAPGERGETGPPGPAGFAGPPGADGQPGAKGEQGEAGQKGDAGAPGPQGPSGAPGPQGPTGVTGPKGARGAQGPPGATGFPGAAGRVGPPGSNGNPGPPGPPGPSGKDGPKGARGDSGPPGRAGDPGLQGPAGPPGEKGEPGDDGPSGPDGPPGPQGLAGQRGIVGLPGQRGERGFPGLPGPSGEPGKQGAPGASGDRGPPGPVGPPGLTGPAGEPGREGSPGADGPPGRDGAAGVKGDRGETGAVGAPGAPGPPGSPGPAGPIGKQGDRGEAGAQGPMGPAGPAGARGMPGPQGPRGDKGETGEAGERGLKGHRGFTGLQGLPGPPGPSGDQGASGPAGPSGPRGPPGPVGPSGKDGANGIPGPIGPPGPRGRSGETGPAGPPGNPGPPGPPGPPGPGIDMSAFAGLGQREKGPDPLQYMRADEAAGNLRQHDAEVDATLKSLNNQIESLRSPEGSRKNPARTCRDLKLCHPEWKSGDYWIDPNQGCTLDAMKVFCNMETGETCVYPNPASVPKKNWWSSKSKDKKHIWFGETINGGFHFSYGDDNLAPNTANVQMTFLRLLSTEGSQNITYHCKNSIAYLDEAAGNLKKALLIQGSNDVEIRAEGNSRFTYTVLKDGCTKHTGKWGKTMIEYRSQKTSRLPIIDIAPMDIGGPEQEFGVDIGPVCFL

B1: Recombinant bovine opticin (natural protein)
chain: ASLSEEREGDPYAILHLGDYVLSLDNYDEVIDPSNYDELIDYGDQLPQVKGTSLASLTRTRFTQSTEAARTLPSNPTTARPPTLGLLAAPANHGLPTCLICVCLGSSVYCDDADLENIPPLPQTTAYLYARFNRISHIRAGDFKGLTKLKRIDLSGNSISSIDDKALRLLPALRDLILPENKLVALPTLPTSIEVLDVRMNRLQSSGIQPEAFRALEKLQFLYLADNLLDAIPPSLPLSLRSLHLQNNMIETMQRDAFCDAEEHRHTRRPLEDIRLDGNPINLSLFPSAYFCLPRLPTGRFV
In the case of B1, the Kd [1] is reported as 40 nM and the Kd [2] is reported as 500 nM.
